Experimental data published in patent US20110287948A1, “MEASUREMENT OF MATERIAL PROPERTIES AND RELATED METHODS AND COMPOSITIONS BASED ON CYTOADHERENCE” (Massachusetts Institute of Technology, priority 2010, published 2011).

Key:
[1] = tested on: Acute promyelocytic leukemia cells; details: cells induced to differentiate down the neutrophil lineage for three days; cited from earlier work
WAS−/− T cells [2] = test: In vitro Transwell cell migration toward CCL19, WAS-/- T cells; type: cell-based, mouse (WAS−/− on Balb/c background); details: seven hours of exposure to CCL19 (100 ng/mL), 5-μm pore inserts
Protocol: Cells from the peripheral lymph nodes and the spleen of Balb/c mice and WAS−/− mice on Balb/c background were pooled and enriched using the EasySep Mouse CD8+ T Cell Enrichment Kit from STEMCELL Technologies (British Columbia, Canada). Enrichment was confirmed using fluorescence-activated cell sorting (FACS) by staining the cells with FITC/anti-Thy1.2 and PE/anti-CD8a antibodies (Abs). The memory T cell population was assessed by evaluating the expression of CD44 and CD62L via FACS. T cells in an activation medium with 100 units/mL IL-2 and 1% anti-CD28 Ab were activated by plate-bound anti-CD3 Abs for 4 day at 37° C. The activation medium included RPMI with 10% FBS, 10 mM HEPES (1M), 1% NEAA, 1% sodium pyruvate (100 mM), […] (3-mercaptoethanol, 4 mM L-glutamine, and 100 μg/mL Pen/Strep. Cell activation was verified via FACS measurement of CD25. Enriched WT and WAS−/− T cells in DMEM with 1% BSA and 0.1% Pen/Strep were induced to migrate through polycarbonate Transwell inserts (Costar, Cambridge, Mass.) with 5-μm pores in a 24-well plate toward a CCL19 chemokine source (R&D Systems, Minneapolis, Minn.). Inserts contained 5×10^5 cells in 100 μL of medium, and wells contained 1 mL of medium with either no CCL19 or 100 ng/mL of CCL19. Cells were allowed to migrate for ˜7 hours at 37° C., and those that crossed the membrane were collected and used for MPA studies.

WT T cells [3] = test: Micropipette aspiration of CCL19-stimulated migratory WT T cells; type: cell-based, mouse (Balb/c)
Protocol: (§1) Micropipettes made using a micropipette puller were trimmed to 2.5-3 or 4.5-5 μm inner diameter for testing naïve and activated T cells. MPA glass chambers consisted of a 24 mm×60 mm microscope coverslip bottom, a U-shaped parafilm spacer, and a 22 mm×22 mm microscope coverslip top. The assembly was baked for two hours at 80° C. to ensure good adhesion between the components.
(§2) Enriched WT and WAS−/− T cells in DMEM with 1% BSA and 0.1% Pen/Strep were induced to migrate through polycarbonate Transwell inserts (Costar, Cambridge, Mass.) with 5-μm pores in a 24-well plate toward a CCL19 chemokine source (R&D Systems, Minneapolis, Minn.). Inserts contained 5×10^5 cells in 100 μL of medium, and wells contained 1 mL of medium with either no CCL19 or 100 ng/mL of CCL19. Cells were allowed to migrate for ˜7 hours at 37° C., and those that crossed the membrane were collected and used for MPA studies.
(§3) 3×10^5 cells in 100 μL RPMI with 10% FBS and 1% HEPES was stained with 10 μL trypan blue. The mixture was added to 600 μL of either the RPMI medium or the T cell activation medium with IL-2 for naïve and activated T cell testing. Migratory T cells were tested in the medium used for migration. The MPA device was based on the design of Hochmuth et al (18). The aspiration rate and volume were 36 mL/hr and 2 mL, corresponding to a total pressure of ˜400 Pa. The cell movement in the micropipette was recorded with a CCD camera. Aspirations were performed at approximately room temperature.
MPA data were fitting using the half-space model (77) described by the expressions:
where E is the cell modulus, L is the length from the micropipette opening to the cell leading edge, Δp is the pressure differential at a particular L, ri and ro are the inner and outer […] of the micropipette, and φ is the wall function that is approximately […]. The ImageJ software was used to manually track the change in L. By plotting Δp against ri/L and finding the best linear fit (minimal total error) a modulus could be derived from the slope of the line. […]

WAS−/− T cells [4] = test: Micropipette aspiration of CCL19-stimulated migratory WAS-/- T cells; type: cell-based, mouse (WAS−/− on Balb/c background); details: naïve WAS−/− T cells that migrated in response to CCL19
Protocol: as §1, §2
as §3, with “The aspiration rate and volume were 36 mL/hr and 2 mL, corresponding to a total pressure of ˜400 Pa.” left out, “Aspirations were performed at approximately room temperature.” left out

WT T cells [5] = test: FACS analysis of phenotype (CD62L/CD44) of WT T cells induced to migrate by CCL19; type: cell-based, mouse (Balb/c); details: WT cells that migrated after CCL19 exposure
Protocol: FIG. 68 depicts results of a FACS analysis of phenotype of naïve WT T cells induced to migrate by the chemokine CCL19. T cells were first gated on PI to exclude dead cells. The cell samples tested were naïve T cells not exposed to CCL 19 (A, D), cells that remained in the insert after CCL19 exposure (100 ng/mL) for seven hours (B, E), and cells that migrated across the insert membrane after the same chemokine treatment (C, F).
Cells from the peripheral lymph nodes and the spleen of Balb/c mice and WAS−/− mice on Balb/c background were pooled and enriched using the EasySep Mouse CD8+ T Cell Enrichment Kit from STEMCELL Technologies (British Columbia, Canada). Enrichment was confirmed using fluorescence-activated cell sorting (FACS) by staining the cells with FITC/anti-Thy1.2 and PE/anti-CD8a antibodies (Abs). The memory T cell population was assessed by evaluating the expression of CD44 and CD62L via FACS. T cells in an activation medium with 100 units/mL IL-2 and 1% anti-CD28 Ab were activated by plate-bound anti-CD3 Abs for 4 day at 37° C. The activation medium included RPMI with 10% FBS, 10 mM HEPES (1M), 1% NEAA, 1% sodium pyruvate (100 mM), […] (3-mercaptoethanol, 4 mM L-glutamine, and 100 μg/mL Pen/Strep. Cell activation was verified via FACS measurement of CD25. […]

Molecule	more compliant than the control (creep compliance) [1]	cells migrated (WAS−/− T cells [2])	stiffness compared to activated cells (WT T cells [3]; migratory WT cells vs activated WT T cells)	modulus reduction from the value measured in the absence of CCL19 (WT T cells [3]; migratory WT cells vs untreated naïve WT cells)	apparent Young's modulus (mean+/−SD) (WT T cells [3]; naïve WT T cells that migrated in response to CCL19)	apparent Young's modulus (mean+/−SD) (WAS−/− T cells [4])	migrating cells stained CD62L high and CD44 low (naïve phenotype) (WT T cells [5])
CC1=C(/C=C/C(C)=C/C=C/C(C)=C/C(=O)O)C(C)(C)CCC1 [all-trans retinoic acid]	45%	–	–	–	–	–	–
CCL19: chemokine CCL19 (R&D Systems) used as chemoattractant for T cells (protein, UniProt Q99731 22-98, looked up) C-C motif chemokine 19: GTNDAEDCCLSVTQKPIPGYIVRNFHYLLIKDGCRVPAVVFTTLRGRQLCAPPDQPWVERIIQRLQRTSAKMKRRSS	–	~6.4%	about 1.4 times	more than 2 times	128+/−33 Pa	152+/−102 Pa	~90%
